According to the nanobody polyreactivity screen of Harvey et al. (2022):

Experiment: yeast display, Sf9 membrane polyspecificity reagent, FACS + sequencing; frameworks hold sequencing errors
Outline: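 A nanobody's polyreactivity label depends on the gate it was sorted from. Yeast display cells were stained with 10% biotinylated, detergent-solubilized Sf9 membrane reagent for 1 hour at 4 °C, enriched on streptavidin microbeads and sorted by FACS. The low and high (top ~1%) gates were set on anti-HA fluorescence for expression and streptavidin fluorescence for reagent binding.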

Sequence | polyreactivity (PSR sort gate)
QDQLVESGGGLVQAGGSLRLSCAASGRIFGYYTAMGWYRQTPAKEREMVASITKSGGSTYYSDSVKGRFTITRDNAKNTVYLQKNCLKPEDTAVYYCAAAFNRYGTTSYWYRHYYWGQGTQVTVSS | high polyreactivity
QDQLVESGGGLVQAGGSLRLSCAASGRIFKHNAMGWYRQAPGKERELVATISIAGRTNYADSVKGRFTISRDNAKNTVYLQMNSLKPEDTAVYYCAASTFFIHTYDYWGQGTQVTVSS | low polyreactivity
QDQLVESGGGLVQAGGSLRLSCAASGRIFKYNAMGWYRQAPRKERELVAAITRGGSTNYADSVKGRFTISRDNAKNTVYFQLNSLKPEDTEVYYCAALRSRYGRDMDSWGQGTQVSVSS | high polyreactivity
QDQLVESGGGLVQAGGSLRLSCAASGRIFRTYAMGWYRQAPRQERELVAAIRSGGSTKYADSVKGRFTISRDNAKNTVYLQMKSLKPEDTAVYYCAAAVLGRYSAGDGYWGQGTQVTVSS | low polyreactivity
QDQLVESGGGLVQAGGSLRLSCAASGRIFSIYAMGWYRQAPGKERELVAAITRGGRTIYADSVKGRFTISRDNAKNTVYLQMNSLKPEDTAVYYCAARRIDGVVKPYDYWGQGTQVTVSS | low polyreactivity
QDQLVESGGGLVQAGGSLRLSCAASGRIFTQNRMGWYRQAPGKERELVAVITSSGGSTYYADSVKGRFTISRDNAKNTVYLQMNSLKPEDTAVYYCAAQLVRYVGYYRFDYWGQGTQVTVSS | low polyreactivity
QDQLVESGGGLVQAGGSLRLSCAASGRIFVVYAMGCYRQAPGKERELVAAITGGGRTNYADSVKGRFTISRENAKNTVYLQMKSLKPEDTAVYYCAAGTRSDARRYFYWGQGTQVTVSS | low polyreactivity
QDQLVESGGGLVQAGGSLRLSCAASGRIFYLNAMGWYRQAPGKERELVAAINTSGDSTYYADSVKGRFTISRDIAKNTVYLQMNSLKQEDTAVYYCAAYVIGPDQFIYDYWGQGTQVTVSS | low polyreactivity
QDQLVESGGGLVQAGGSLRLSCAASGRNFYRYVMGWYRQAPGKERELVAAITSSGGSTYYADSVKGRFTISRDNAKNTFYLQMNSLKPEDTAVYYCAADRYTRYRYYYWGKGTQVTVSS | high polyreactivity
QDQLVESGGGLVQAGGSLRLSCAASGRTFDDYAMGWYRQAPGKERELVAAISSSGGSTYYADSVKGRFSISRDNAKNTVYLQMNCLKPDDTAVYYCAADYDWGYWYDYWGQGTQVTVSS | low polyreactivity
QDQLVESGGGLVQAGGSLRLSCAASGRTFDLYAMGCYRQAPGKERELVAAITKGGGSTYYADSVKGRFTISRDNAKNTVYLQMNSLKPEDTAVYYCAARKYKRIYRISSGIGYYWGQGTQVTVSS | high polyreactivity
QDQLVESGGGLVQAGGSLRLSCAASGRTFDRNAMGWYRQAPGKERELVARITIDGSTNYADSVKGRFTISRDNAKNTVYLQMNSLKPEDTAVYYCATDQLSLSWYFRPYDYGYWGQGTQVTVSS | high polyreactivity
QDQLVESGGGLVQAGGSLRLSCAASGRTFRSYVMGWYRQAPGKERELVAAITTSGGSTYYADSVKGRFTISRDNAKNTVYLQMNSLKPEDTAVYYCAAEYYTYTGHYDSWYGDDYWGQGTQVTVSS | high polyreactivity
QDQLVESGGGLVQAGGSLRLSCAASGRTFVAYAMGWSRQAPGKERELVARISSGGSTYYADSVKGRFTISRDNAKNTVYLQMNSLKPEDTAVYYCAADRGPYFVPWRRYDYWGQGTQVTVSS | low polyreactivity
QDQLVESGGGLVQAGGSLRLSCAASGRTISGYVMGWYIQAPGKERELVATINGSGASTYYADSVKGRFTISRDNAKNTVYLQMNSLKPEDTAVYYCAAKRYRPKYEYYYWGQGTQVTVSS | high polyreactivity
QDQLVESGGGLVQAGGSLRLSCAASGSIFAGNVMGWYRQAPGKERELVAAISRRGGRTYYADSVKGRFTISRDNAKNTVYLQMNSLKPEDTAVYYCAARRDPVLGKSDYWGQGTLVTVSS | high polyreactivity
QDQLVESGGGLVQAGGSLRLSCAASGSIFGGYGMGWYRQAHGKERELVAAITSGSSTYYADSVKGRFTISRDNAKNTVYLQMNSLKPEDTAVYYCAARPYPNSAYEGDYWGRGTQVTVSS | low polyreactivity
QDQLVESGGGLVQAGGSLRLSCAASGSIFKINAMGWYRQAPGKERELVATITWSTGTTYYADSVKGRFTISRDNAKNTVYLQMYSLKPEDTAVYYCATDGDSTKLDYWGQGTQVTVSS | low polyreactivity
QDQLVESGGGLVQAGGSLRLSCAASGSIFPYNAMGWYRQAPGKERELVATISSGGSTNYADSVKGRFTISRDNAKNTVYLQMNSLKPEDTAVYYCAAVVIVFYYAPNYWGDIEYGYWGQGTQVTVSS | low polyreactivity
QDQLVESGGGLVQAGGSLRLSCAASGSIFRKYVMGWYRQAPGKERELVAAISGSGGRTYYADSVKGRFTISRDNAKNTVYLQMNSLKPEDTAVYYSNAYPHAYTGSTREGDYWGQGTQVTVSS | high polyreactivity

Sequence | polyreactivity (PSR sort gate)
QDQLVESGGGLVQAGGSLRLSCAASGSIFTFNTMGWYRQAPVKERELVATISSGGRTYYADSVKGRFTISRDNAKNTVYLQMNSLKPEDTSVYYCNKGYYGYTYVEYNYWGQGTQVTVSS | low polyreactivity
QDQLVESGGGLVQAGGSLRLSCAASGSIFVENAMGWYRQAPGKEREFVAAITRSGGSTYYADSVKGRFTISRDNAKNPVYLQMNSMKPEDTAVYYCAARIWDEQPAAGYYWGQGTQVTVSS | low polyreactivity
QDQLVESGGGLVQAGGSLRLSCAASGSIFWLYAMGWYRQAHGKERELVASITGGGSTNYADSVKGRFTISRDNAKNTVYLQMNSLKPEDTAVYYCAKRYYRTGRKRTGLDYWGQGTQVTVSS | high polyreactivity
QDQLVESGGGLVQAGGSLRLSCAASGSIFYYYAMGWYRQAPGKERELVASISRSGGSTFYADSVKGRFTISRDNAKNSVYLQMNRLKPEDTAVSYCATGWYYSPYNYWGQGTQVTVSS | high polyreactivity
QDQLVESGGGLVQAGGSLRLSCAASGSIFYYYVMGWYRQETGKEREFVAAISWGGDSTYYADSVKGRFTISRDNAKNTVYLQMNSLKTEDTAVYYCKADYPWSVLAYDYWGQGTQVTVSS | low polyreactivity
QDQLVESGGGLVQAGGSLRLSCAASGSISSTNAMGWYRQAPGKERELVATISWIGGSTYADSVKGRFTISRDNAKNTVYLQMNSLKPEDTAVYYCNRDWIFTKDYDYWGQGTQVTVSS | low polyreactivity
QDQLVESGGGLVQAGGSLRLSCAASGSMLVNNAMGCYRQAPGKERELVAASSKSTGRTYYADSVKGRFTISRDNAKNTVYLQMNSLKPVDTAVFYCYALTHPDKFVYWGQGTQVTVSS | high polyreactivity
QDQLVESGGGLVQAGGSLRLSCAASGSNFGPYAMGGYRHAPGKERELVARISGGGSTYYADSVKGRFTISRDNAKNTVYLQMNSLKPEDTAVYYCNVRNWAYWSHAIIYNYWGQGTLVTVSS | high polyreactivity
QDQLVESGGGLVQAGGSLRLSCAASGSNFPTNAMGWYRPAPGKERELVADITIRGGGTSYADSVKGRFTISRDNAKNTVYLHMNSLKPEDTAFYYCARSKSTELKRLLFDSWGQGTQVTVSS | low polyreactivity
QDQLVESGGGLVQAGGSLRLSCAASGSNLYRNAMGWSRQAPGKERELVAAITSRGGSTYADSVTGRFTISRDNAKNTVYLQMNSLKPEDTAVYYCAKGYLYRRPTVTHGYWGQGTQVTVSS | low polyreactivity
QDQLVESGGGLVQAGGSLRLSCAASGSTFAGNGMGWYRQAPGKERELVAGIDVTGGSTYYADSVKGRFTISRDNAKNTVYLQMNSLKPEDTAVYFCNARYVYHSSFAGFDYWGQGTQVTVSS | low polyreactivity
QDQLVESGGGLVQAGGSLRLSCAASGSTFAGYAMGWYRQAPGKERELVATITYSGGSTYYADSVKGRFTISRDNAKNTVYLQMNSLKPEDTAVYYCAKKASYWWGYEYWGQGTQVTVSS | low polyreactivity
QDQLVESGGGLVQAGGSLRLSCAASGSTFGNYAMGWYRQAPGKERELVAAITSGGTTNYADSVKGRFTISRDNAKNTVYLQMNSLKPEDTAVYYCNAVGTFVRYSTDGRDGVTYDYWGHGTQVTVSS | low polyreactivity
QDQLVESGGGLVQAGGSLRLSCAASGSTFIDNVMGWYRQPPGQERELVAAINSGGSTDYADSLKGRFTISRDNAKNTVYLLMNRLKPEDTAVYYCNAYHIVIYDYWGQGTQVTVSS | low polyreactivity
QDQLVESGGGLVQAGGSLRLSCAASGSTFQWYAMVWYRQAPGKERELVAAINKSGGTTYYADSVKGRFTISRDNAKNTVYLQMNRLKPEDTAVYYCATDNPVVYQPGNLDYWVQGTQVTVSS | low polyreactivity
QDQLVESGGGLVQAGGSLRLSCAASGSTFRGNAKGWYRQAPGKERELVAAITGSGGRRYYADSVKGRFTISRDYAKNTVYLQMNSLKPEDTAVYYCAAVYYGYRDRTDYGYWGQGTQVTVSS | high polyreactivity
QDQLVESGGGLVQAGGSLRLSCAASGSTFSDNTMGWYRQAPGKERELVAANTTIGGSTYYADSVKGRFTISRDNAKNTVSVQMISLKPEDTAVYYCAAVDFTSQYYDLYIYWGQGTQVTVSS | low polyreactivity
QDQLVESGGGLVQAGGSLRLSCAASGSTFTPNALGWYRQPPGKQRELVAAISTRGSSTYYADSVKGRFTISRDNAKNTVYLQMNRLKPEDTAVYSCAAPFKYGLSYGSWYGYCGQGTQVTVSS | high polyreactivity
QDQLVESGGGLVQAGGSLRLSCAASGSTFYIYAMGWNIQAPGKERELVAAISTTDGTTYYADSVKGRFTISRDNAKKTVYLQMNSLKPEDTAVYYCAAEWFGSVQPAYDYWGQVTQVTVSS | high polyreactivity
QDQLVESGGGLVQAGGSLRLSCAASGSTFYYNAMGLYRQAPGKEREVVARISRSGGSTYADSVKGRFTISRDNAKNTVYLQMNSLKPEDTAVYYCNADAYGTPEFTSYAVRYDYWGQGTQVTVSS | low polyreactivity
